From US20240108738A1 (Bicycle, published 2024)
Numbered stars: 1 amine (or outer) side, 2 acyl side, 3 side chain; on linkers, the order of the positions; unused ones are H or OH. Bridge positions count the residues as written; N and C are the ends. Square brackets hold non-standard residues; d marks the D form. Ends that are not written are not given here. TATA = O=C(CC[*:1])N1CN(C(=O)CC[*:2])CN(C(=O)CC[*:3])C1; Hyp = O=C(O)[C@@H]1C[C@@H](O)CN1; hArg = N=C(N)NCCCC[C@H](N)C(=O)O; tBuAla = CC(C)(C)C[C@H](N)C(=O)O; 4Pal = N[C@@H](Cc1ccncc1)C(=O)O; Cha = N[C@@H](CC1CCCCC1)C(=O)O; Agb = N=C(N)NCC[C@H](N)C(=O)O; Cba = N[C@@H](CC1CCC1)C(=O)O; Chg = N[C@H](C(=O)O)C1CCCCC1; Tle = CC(C)(C)[C@H](N)C(=O)O; dNva = CCC[C@@H](N)C(=O)O; NMeA = CN[C@@H](C)C(=O)O; Nle = CCCC[C@H](N)C(=O)O

Molecular target: T1, Human NKp46 Fc tag (Acro Biosystems, NC1-H5257) (human, UniProt O76036 22-255)
T1 construct: bought; also called Fc-tagged human NKp46
Assay: SPR Method 1 and/or 2
Procedure: The SPR analysis was run at 25° C. and a flow rate of 50 μl/min with 60 seconds association and 200-400 seconds dissociation time. Data were corrected for DMSO excluded volume effects. All data were double-referenced for blank injections and reference surface using standard processing procedures and data processing and kinetic fitting were performed using Scrubber software, version 2.0c (BioLogic Software). Data were fitted using simple 1:1 binding model allowing for mass transport effects where appropriate.
For analysis of peptide binding, a Biacore 8k+ instrument was used with a CM5 chip (Cytiva). All experiments were carried out at 25° C. Anti-human IgG (Fc) antibody (Cytiva) was immobilized on all flow cells by standard amine coupling chemistry. The running buffer was HBS-N(Cytiva, 10 mM HEPES, 0.15 M NaCl, pH 7.4) and the flow rate was 10 μL/min. The carboxymethyl dextran surface was activated with a 1:1 ratio of 0.4 M 1-ethyl-3-(3-dimethylaminopropyl) carbodiimide hydrochloride (EDC)/0.1 M N-hydroxy succinimide (NHS) (Cytiva) for 420s. […] Residual activated groups were blocked with a 420 s injection of 1 M ethanolamine (pH 8.5). The final surface density was 3000-5000 RU. Fc-tagged human NKp46 was diluted to 0.1 μM in HBS-N and was captured on flow cell 2 only of the sensor chip at a flow rate of 10 μL/min to 500-1000 RU. The buffer was then changed to PBS-P+(Cytiva) supplemented with 2% DMSO. […] The flow rate was 50 μL/min with 60 s association and 400 s dissociation. Data were corrected for DMSO volume exclusion effects. All data were double-referenced against blank injections and reference surface response using standard processing procedures. Data processing and kinetic fitting was performed using Biacore Insight Evaluation Software with Extended Screening and Characterization Extension (Cytiva). Data were fitted using steady state affinity 1:1 binding model to determine KD. Data were fitted using kinetic 1:1 binding model to determine kinetic constants where appropriate.

T1 sequence (O76036 22-255 limits assumed): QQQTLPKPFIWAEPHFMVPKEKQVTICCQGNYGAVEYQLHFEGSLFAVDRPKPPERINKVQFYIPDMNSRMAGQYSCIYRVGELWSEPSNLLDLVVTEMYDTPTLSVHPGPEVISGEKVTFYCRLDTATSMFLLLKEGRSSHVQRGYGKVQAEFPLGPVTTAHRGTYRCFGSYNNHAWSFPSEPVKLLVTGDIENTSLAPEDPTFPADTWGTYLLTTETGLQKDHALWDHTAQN

Row | Binder | Kd
1 | ACNLQA[Hyp]CMLTGKVCA-NH2 (linker 2-8-15 via TATA, scaffold TATA) [BCY18311] | 0.795 µM
2 | ACNLQAPCMLTG[hArg]VCA-NH2 (linker 2-8-15 via TATA; N-terminus assumed; SMILES CSCC[C@@H]1NC(=O)[C@@H]2CSCCC(=O)N3CN(CN(C3)C(=O)CCSC[C@@H](C(=O)N[C@@H](C)C(N)=O)NC(=O)[C@H](C(C)C)NC(=O)[C@H](CCCCNC(=N)N)NC(=O)CNC(=O)[C@H]([C@@H](C)O)NC(=O)[C@H](CC(C)C)NC1=O)C(=O)CCSC[C@H](NC(=O)[C@H](C)N)C(=O)N[C@@H](CC(N)=O)C(=O)N[C@@H](CC(C)C)C(=O)N[C@@H](CCC(N)=O)C(=O)N[C@@H](C)C(=O)N1CCC[C@H]1C(=O)N2, scaffold TATA) [BCY18328] | 0.887 µM
3 | ACNLQAPCM[Cba]TGKVCA-NH2 (linker 2-8-15 via TATA, scaffold TATA) [BCY18319] | 0.991 µM
4 | ACNLQAPCM[tBuAla]TGKVCA-NH2 (linker 2-8-15 via TATA, scaffold TATA) [BCY18320] | 0.622 µM
5 | ACNLQAPC[Cba]LTGKVCA-NH2 (linker 2-8-15 via TATA; N-terminus assumed; SMILES CC(C)C[C@@H]1NC(=O)[C@H](CC(N)=O)NC(=O)[C@@H](NC(=O)[C@H](C)N)CSCCC(=O)N2CN3CN(C2)C(=O)CCSC[C@H](NC(=O)[C@@H]2CCCN2C(=O)[C@H](C)NC(=O)[C@H](CCC(N)=O)NC1=O)C(=O)N[C@@H](CC1CCC1)C(=O)N[C@@H](CC(C)C)C(=O)N[C@@H]([C@@H](C)O)C(=O)NCC(=O)N[C@@H](CCCCN)C(=O)N[C@@H](C(C)C)C(=O)N[C@H](C(=O)N[C@@H](C)C(N)=O)CSCCC3=O, scaffold TATA) [BCY18315] | 0.878 µM
6 | ACNLQAPCMLTG[Agb]VCA-NH2 (linker 2-8-15 via TATA; N-terminus assumed; SMILES CSCC[C@@H]1NC(=O)[C@@H]2CSCCC(=O)N3CN(CN(C3)C(=O)CCSC[C@@H](C(=O)N[C@@H](C)C(N)=O)NC(=O)[C@H](C(C)C)NC(=O)[C@H](CCNC(=N)N)NC(=O)CNC(=O)[C@H]([C@@H](C)O)NC(=O)[C@H](CC(C)C)NC1=O)C(=O)CCSC[C@H](NC(=O)[C@H](C)N)C(=O)N[C@@H](CC(N)=O)C(=O)N[C@@H](CC(C)C)C(=O)N[C@@H](CCC(N)=O)C(=O)N[C@@H](C)C(=O)N1CCC[C@H]1C(=O)N2, scaffold TATA) [BCY18324] | 1.5 µM
7 | ACNLQA[NMeA]CMLTGKVCA-NH2 (linker 2-8-15 via TATA, scaffold TATA) [BCY18312] | 1.81 µM
8 | ACNLQAPCM[Cha]TGKVCA-NH2 (linker 2-8-15 via TATA; also: Cha: filing contradicts itself on L or D, scaffold TATA) [BCY18321] | 0.548 µM
9 | ACNLQAPCMLTGK[Chg]CA-NH2 (linker 2-8-15 via TATA; N-terminus assumed; SMILES CSCC[C@@H]1NC(=O)[C@@H]2CSCCC(=O)N3CN(CN(C3)C(=O)CCSC[C@@H](C(=O)N[C@@H](C)C(N)=O)NC(=O)[C@H](C3CCCCC3)NC(=O)[C@H](CCCCN)NC(=O)CNC(=O)[C@H]([C@@H](C)O)NC(=O)[C@H](CC(C)C)NC1=O)C(=O)CCSC[C@H](NC(=O)[C@H](C)N)C(=O)N[C@@H](CC(N)=O)C(=O)N[C@@H](CC(C)C)C(=O)N[C@@H](CCC(N)=O)C(=O)N[C@@H](C)C(=O)N1CCC[C@H]1C(=O)N2, scaffold TATA) [BCY18326] | 2.78 µM
10 | ACNLQAPCMLTGK[Tle]CA-NH2 (linker 2-8-15 via TATA, scaffold TATA) [BCY18325] | 0.854 µM
11 | ACNLQAPC[Nle]LTGKVCA-NH2 (linker 2-8-15 via TATA, scaffold TATA) [BCY18314] | 3.15 µM

The next binders have a lower Kd than those just listed; values first:

Row | Kd | Binder
12 | 0.149 µM | Ac-CY[Cba][NMeA]DYLC[dA]DEYC-NH2 (linker 1-8-13 via TATA; SMILES CC(=O)N[C@H]1CSCCC(=O)N2CN3CN(C2)C(=O)CCSC[C@H](NC(=O)[C@H](CC(C)C)NC(=O)[C@H](Cc2ccc(O)cc2)NC(=O)[C@H](CC(=O)O)NC(=O)[C@H](C)N(C)C(=O)[C@H](CC2CCC2)NC(=O)[C@H](Cc2ccc(O)cc2)NC1=O)C(=O)N[C@H](C)C(=O)N[C@@H](CC(=O)O)C(=O)N[C@@H](CCC(=O)O)C(=O)N[C@@H](Cc1ccc(O)cc1)C(=O)N[C@H](C(N)=O)CSCCC3=O, scaffold TATA) [BCY18440]
13 | 0.091 µM | Ac-CN[Cba]PDYLC[dA]DEYC-NH2 (linker 1-8-13 via TATA; SMILES CC(=O)N[C@H]1CSCCC(=O)N2CN3CN(C2)C(=O)CCSC[C@H](NC(=O)[C@H](CC(C)C)NC(=O)[C@H](Cc2ccc(O)cc2)NC(=O)[C@H](CC(=O)O)NC(=O)[C@@H]2CCCN2C(=O)[C@H](CC2CCC2)NC(=O)[C@H](CC(N)=O)NC1=O)C(=O)N[C@H](C)C(=O)N[C@@H](CC(=O)O)C(=O)N[C@@H](CCC(=O)O)C(=O)N[C@@H](Cc1ccc(O)cc1)C(=O)N[C@H](C(N)=O)CSCCC3=O, scaffold TATA) [BCY18435]
14 | 0.047 µM | Ac-C[4Pal][Cba]PDYLC[dA]DEYC-NH2 (linker 1-8-13 via TATA; SMILES CC(=O)N[C@H]1CSCCC(=O)N2CN3CN(C2)C(=O)CCSC[C@H](NC(=O)[C@H](CC(C)C)NC(=O)[C@H](Cc2ccc(O)cc2)NC(=O)[C@H](CC(=O)O)NC(=O)[C@@H]2CCCN2C(=O)[C@H](CC2CCC2)NC(=O)[C@H](Cc2ccncc2)NC1=O)C(=O)N[C@H](C)C(=O)N[C@@H](CC(=O)O)C(=O)N[C@@H](CCC(=O)O)C(=O)N[C@@H](Cc1ccc(O)cc1)C(=O)N[C@H](C(N)=O)CSCCC3=O, scaffold TATA) [BCY18437]
15 | 0.022 µM | ACYLPDYLCGDEYCA-NH2 (linker 2-9-14 via TATA; also: scaffold: TATA, TATB or TBMT, scaffold TATA) [BCY18470]
16 | 0.009 µM | Ac-CY[Cba]PDYLC[dF]DEYC-NH2 (linker 1-8-13 via TATA, scaffold TATA) [BCY19682]
17 | 0.0077 µM | Ac-CY[Cba]PNYLC[dA]DEYC-NH2 (linker 1-8-13 via TATA; SMILES CC(=O)N[C@H]1CSCCC(=O)N2CN3CN(C2)C(=O)CCSC[C@H](NC(=O)[C@H](CC(C)C)NC(=O)[C@H](Cc2ccc(O)cc2)NC(=O)[C@H](CC(N)=O)NC(=O)[C@@H]2CCCN2C(=O)[C@H](CC2CCC2)NC(=O)[C@H](Cc2ccc(O)cc2)NC1=O)C(=O)N[C@H](C)C(=O)N[C@@H](CC(=O)O)C(=O)N[C@@H](CCC(=O)O)C(=O)N[C@@H](Cc1ccc(O)cc1)C(=O)N[C@H](C(N)=O)CSCCC3=O, scaffold TATA) [BCY18441]
18 | 0.0071 µM | Ac-CY[Cba]PQYLC[dA]DEYC-NH2 (linker 1-8-13 via TATA; SMILES CC(=O)N[C@H]1CSCCC(=O)N2CN3CN(C2)C(=O)CCSC[C@H](NC(=O)[C@H](CC(C)C)NC(=O)[C@H](Cc2ccc(O)cc2)NC(=O)[C@H](CCC(N)=O)NC(=O)[C@@H]2CCCN2C(=O)[C@H](CC2CCC2)NC(=O)[C@H](Cc2ccc(O)cc2)NC1=O)C(=O)N[C@H](C)C(=O)N[C@@H](CC(=O)O)C(=O)N[C@@H](CCC(=O)O)C(=O)N[C@@H](Cc1ccc(O)cc1)C(=O)N[C@H](C(N)=O)CSCCC3=O, scaffold TATA) [BCY18442]
19 | 0.0063 µM | Ac-CY[Cba]PDYLC[dV]DEYC-NH2 (linker 1-8-13 via TATA, scaffold TATA) [BCY18443]
20 | 0.0039 µM | Ac-CY[Cba]PDYLC[dNva]DEYC-NH2 (linker 1-8-13 via TATA; SMILES CCC[C@H]1NC(=O)[C@@H]2CSCCC(=O)N3CN(CN(C3)C(=O)CCSC[C@H](NC(C)=O)C(=O)N[C@@H](Cc3ccc(O)cc3)C(=O)N[C@@H](CC3CCC3)C(=O)N3CCC[C@H]3C(=O)N[C@@H](CC(=O)O)C(=O)N[C@@H](Cc3ccc(O)cc3)C(=O)N[C@@H](CC(C)C)C(=O)N2)C(=O)CCSC[C@@H](C(N)=O)NC(=O)[C@H](Cc2ccc(O)cc2)NC(=O)[C@H](CCC(=O)O)NC(=O)[C@H](CC(=O)O)NC1=O, scaffold TATA) [BCY18444]
